Experimental data from PMC13649712 (2026).
Where two headings read alike, the source gives them in different places.

Experiments:
[1] = biological target: T1, mouse PER1 1013-1291 R1111A (mouse, UniProt O35973 1013-1291, R1111A); test: ITC
[2] = biological target: T1, mouse PER1 1013-1291 R1111A; test: ITC; remark: listed apart in the source

Kd [1]: 9.8 nM
Kd [2]: 10 nM
B1: mouse CRY1 1-496 (PHR) (domain or fragment)
chain: MGVNAVHWFRKGLRLHDNPALKECIQGADTIRCVYILDPWFAGSSNVGINRWRFLLQCLEDLDANLRKLNSRLFVIRGQPADVFPRLFKEWNITKLSIEYDSEPFGKERDAAIKKLATEAGVEVIVRISHTLYDLDKIIELNGGQPPLTYKRFQTLVSKMEPLEMPADTITSDVIGKCMTPLSDDHDEKYGVPSLEELGFDTDGLSSAVWPGGETEALTRLERHLERKAWVANFERPRMNANSLLASPTGLSPYLRFGCLSCRLFYFKLTDLYKKVKKNSSPPLSLYGQLLWREFFYTAATNNPRFDKMEGNPICVQIPWDKNPEALAKWAEGRTGFPWIDAIMTQLRQEGWIHHLARHAVACFLTRGDLWISWEEGMKVFEELLLDADWSINAGSWMWLSCSSFFQQFFHCYCPVGFGRRTDPNGDYIRRYLPVLRGFPAKYIYDPWNAPEGIQKVAKCLIGVNYPKPMVNHAEASRLNIERMKQIYQQLSRYRG
